This is an account of results in article PMC6278935 (Pharmacogenetics and genomics, 2012).

One series concerns the target T1, UGT1A4 (Homo sapiens, UniProt P22310).
T1 sequence (P22310 29-534): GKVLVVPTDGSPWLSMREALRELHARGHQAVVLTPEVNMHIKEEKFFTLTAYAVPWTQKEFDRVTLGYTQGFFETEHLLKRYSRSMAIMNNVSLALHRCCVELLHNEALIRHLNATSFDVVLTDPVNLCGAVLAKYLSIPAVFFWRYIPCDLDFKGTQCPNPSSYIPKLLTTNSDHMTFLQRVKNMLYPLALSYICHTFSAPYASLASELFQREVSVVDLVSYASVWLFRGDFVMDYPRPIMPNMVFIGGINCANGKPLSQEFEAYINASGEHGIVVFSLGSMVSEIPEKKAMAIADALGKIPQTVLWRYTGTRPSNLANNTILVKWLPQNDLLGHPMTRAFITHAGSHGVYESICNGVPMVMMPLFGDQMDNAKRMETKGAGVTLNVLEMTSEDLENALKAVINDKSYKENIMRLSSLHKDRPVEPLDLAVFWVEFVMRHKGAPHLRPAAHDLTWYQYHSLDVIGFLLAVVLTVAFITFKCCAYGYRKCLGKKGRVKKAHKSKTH
Description: Inhibition of glucuronide formation in UGT1A4-over-expressing cell homogenates. Conditions: 10 μM hecogenin. The class given is biochemical.

The test system of series [1] is Human liver microsomes (HLM). The class given is biochemical. Conditions: 10 μM hecogenin; 160 μM CLZ; HLM.
Substrate in series [2]: CN1CCN(C2=Nc3cc(Cl)ccc3Nc3ccccc32)CC1
Description: cells, lysate or membranes named. Particulars: other: substrate CLZ.

Substrate in series [3]: Clc1ccc2c(c1)N=C(N1CCNCC1)c1ccccc1N2
Description: cells, lysate or membranes named. Conditions: other: substrate dmCLZ.

“And” between values parts separate entries of the source, which are not always exact repeats. Equal values may be shown once. Marks after values point to notes of the source that are not given here.

For hecogenin, the figures for the “inhibition of CLZ-5-N-glucuronide formation” value (at UGT1A4 (160 μM CLZ); in series [1]) were 77% and 89 ± 3%, respectively. Besides, the “inhibition of CLZ-N^+-glucuronide formation” value is recorded as 82% against UGT1A4 (160 μM CLZ) and 46 ± 5% in series [1]. In addition, at UGT1A4 (320 μM dmCLZ), the “inhibition of dmCLZ-5-N-glucuronide formation” value was 81%.

B1: UGT1A1 (Homo sapiens) (protein)
chain: HAGKILLIPVDGSHWLSMLGAIQQLQQRGHEIVVLAPDASLYIRDGAFYTLKTYPVPFQREDVKESFVSLGHNVFENDSFLQRVIKTYKKIKKDSAMLLSGCSHLLHNKELMASLAESSFDVMLTDPFLPCSPIVAQYLSLPTVFFLHALPCSLEFEATQCPNPFSYVPRPLSSHSDHMTFLQRVKNMLIAFSQNFLCDVVYSPYATLASEFLQREVTVQDLLSSASVWLFRSDFVKDYPRPIMPNMVFVGGINCLHQNPLSQEFEAYINASGEHGIVVFSLGSMVSEIPEKKAMAIADALGKIPQTVLWRYTGTRPSNLANNTILVKWLPQNDLLGHPMTRAFITHAGSHGVYESICNGVPMVMMPLFGDQMDNAKRMETKGAGVTLNVLEMTSEDLENALKAVINDKSYKENIMRLSSLHKDRPVEPLDLAVFWVEFVMRHKGAPHLRPAAHDLTWYQYHSLDVIGFLLAVVLTVAFITFKCCAYGYRKCLGKKGRVKKAHKSKTH
Turning to B1, in series [2], the Michaelis-Menten constant (Km) is given as 53 ± 2^a,b μM, the maximal velocity (Vmax) is 0.00086 ± 2e-05 µmol/min/mg and the Vmax/Km was found to be 17 ± 0.6 µL/min/mg.

B2: UGT1A4^24Thr/48Leu (Homo sapiens) (protein)
chain: MARGLQVPLPRLATGLLLLLSVQPWAESGKVLVVPTDGSPWLSMREALRELHARGHQAVVLTPEVNMHIKEEKFFTLTAYAVPWTQKEFDRVTLGYTQGFFETEHLLKRYSRSMAIMNNVSLALHRCCVELLHNEALIRHLNATSFDVVLTDPVNLCGAVLAKYLSIPAVFFWRYIPCDLDFKGTQCPNPSSYIPKLLTTNSDHMTFLQRVKNMLYPLALSYICHTFSAPYASLASELFQREVSVVDLVSYASVWLFRGDFVMDYPRPIMPNMVFIGGINCANGKPLSQEFEAYINASGEHGIVVFSLGSMVSEIPEKKAMAIADALGKIPQTVLWRYTGTRPSNLANNTILVKWLPQNDLLGHPMTRAFITHAGSHGVYESICNGVPMVMMPLFGDQMDNAKRMETKGAGVTLNVLEMTSEDLENALKAVINDKSYKENIMRLSSLHKDRPVEPLDLAVFWVEFVMRHKGAPHLRPAAHDLTWYQYHSLDVIGFLLAVVLTVAFITFKCCAYGYRKCLGKKGRVKKAHKSKTH
In the case of B2, in series [3], the Km was 440 ± 45^b μM, the Vmax was 0.0064 ± 0.0009 µmol/min/mg and the Vmax/Km was 15 ± 1.5 µL/min/mg. In addition, the Km in series [2] is 167 ± 19^d μM and 459 ± 23^e μM.

B3: UGT1A4^24Pro/48Leu (Homo sapiens) (protein)
chain: GKVLVVPTDGSPWLSMREALRELHARGHQAVVLTPEVNMHIKEEKFFTLTAYAVPWTQKEFDRVTLGYTQGFFETEHLLKRYSRSMAIMNNVSLALHRCCVELLHNEALIRHLNATSFDVVLTDPVNLCGAVLAKYLSIPAVFFWRYIPCDLDFKGTQCPNPSSYIPKLLTTNSDHMTFLQRVKNMLYPLALSYICHTFSAPYASLASELFQREVSVVDLVSYASVWLFRGDFVMDYPRPIMPNMVFIGGINCANGKPLSQEFEAYINASGEHGIVVFSLGSMVSEIPEKKAMAIADALGKIPQTVLWRYTGTRPSNLANNTILVKWLPQNDLLGHPMTRAFITHAGSHGVYESICNGVPMVMMPLFGDQMDNAKRMETKGAGVTLNVLEMTSEDLENALKAVINDKSYKENIMRLSSLHKDRPVEPLDLAVFWVEFVMRHKGAPHLRPAAHDLTWYQYHSLDVIGFLLAVVLTVAFITFKCCAYGYRKCLGKKGRVKKAHKSKTH
As for B3, in series [3], the Km came to 379 ± 46 µM, the maximal velocity (Vmax) came to 0.01 µmol/min/mg and the Vmax/Km amounted to 28 µL/min/mg.

B4: UGT1A4^24Pro/48Val (Homo sapiens; L48V) (protein)
chain: GKVLVVPTDGSPWLSMREAVRELHARGHQAVVLTPEVNMHIKEEKFFTLTAYAVPWTQKEFDRVTLGYTQGFFETEHLLKRYSRSMAIMNNVSLALHRCCVELLHNEALIRHLNATSFDVVLTDPVNLCGAVLAKYLSIPAVFFWRYIPCDLDFKGTQCPNPSSYIPKLLTTNSDHMTFLQRVKNMLYPLALSYICHTFSAPYASLASELFQREVSVVDLVSYASVWLFRGDFVMDYPRPIMPNMVFIGGINCANGKPLSQEFEAYINASGEHGIVVFSLGSMVSEIPEKKAMAIADALGKIPQTVLWRYTGTRPSNLANNTILVKWLPQNDLLGHPMTRAFITHAGSHGVYESICNGVPMVMMPLFGDQMDNAKRMETKGAGVTLNVLEMTSEDLENALKAVINDKSYKENIMRLSSLHKDRPVEPLDLAVFWVEFVMRHKGAPHLRPAAHDLTWYQYHSLDVIGFLLAVVLTVAFITFKCCAYGYRKCLGKKGRVKKAHKSKTH
Take B4: in series [3], the Km is recorded as 173 ± 22^e μM, the maximal velocity (Vmax) came out at 0.017 ± 0.0013 µmol/min/mg and the Vmax/Km was 96 ± 8 µL/min/mg.
